Assay results from publication PMC3904261 (British Journal of Pharmacology, 2013).
“And” between values parts separate entries of the source, which are not always exact repeats. Equal values may be shown once. Bridge positions count the residues as written; N and C are the ends. Ends that are not written are not given here.

Columns and labels:
CGRP receptor [1] = target: T1, CGRP receptor (Homo sapiens, UniProt O60894+Q16602); experiment: β-arrestin 2 translocation in CHO-K1 cells (PathHunter eXpress); type: cell-based; set-up: host or cells: CHO-K1 (PathHunter eXpress β-arrestin kit); conditions: for β-Arrestin (CHO-K1) Emax (% CGRP) CGRP analogue: 2 h stimulation, means ± SEM, n = 3; for reduction of Emax, β-arrestin 2 translocation: CHO-K1 cells, compared with CGRP
Description: GraphPad Prism 5.00 or 6.00 (GraphPad Software Inc., San Diego, CA, USA) was used for data fitting. Concentration–response curves were fitted to a sigmoidal function with Hill slope constrained to unity to obtain pEC50 and maximum responses (Emax) values. Displacement curves were analysed to obtain pIC50 values. Schild plots were fitted by linear regression to obtain slope and intercepts. pEC50 and pIC50 values were compared with that of human αCGRP using Dunnett's test with either a normal or repeated measures one-way ANOVA, as appropriate.

AMY1(a) receptor = target: T2, AMY1(a) receptor (Homo sapiens, UniProt O60894+P30988); experiment: cAMP production in Cos 7 cells via the AMY1(a) receptor; type: cell-based; conditions: AlphaScreen, means ± SEM
T2 construct: HA; expressed in transfected cells; host or cells: Cos 7
Description: SK-N-MC cells were grown in DMEM/F12 medium supplemented with 10% fetal calf serum as described previously (Poyner et al., [1998]). […] Production of cAMP in SK-N-MC cells for all analogues except [[…]]-hαCGRP was by a radioreceptor assay, as described previously (Poyner et al., [1998]). […] For [[…]]-hαCGRP, a different clone of SK-N-MC cells was used and cAMP production was measured via AlphaScreen (Perkin Elmer, Wellesley, MA, USA), as described previously ([…] et al., [2010]). This assay was also used to investigate the action of all derivatives at the AMY1(a) receptor and other experiments using Cos 7 cells. […] GraphPad Prism 5.00 or 6.00 (GraphPad Software Inc., San Diego, CA, USA) was used for data fitting. Concentration-response curves were fitted to a sigmoidal function with Hill slope constrained to unity to obtain pEC50 and maximum responses (Emax) values. Displacement curves were analysed to obtain pIC50 values. Schild plots were fitted by linear regression to obtain slope and intercepts. pEC50 and pIC50 values were compared with that of human αCGRP using Dunnett's test with either a normal or repeated measures one-way ANOVA, as appropriate.

CGRP receptor [2] = target: T1, CGRP receptor; experiment: cAMP production in SK-N-MC cells; type: cell-based; set-up: relative expression levels of the receptors (endogenous vs. overexpressed); endogenous in cells; host or cells: SK-N-MC cells (ECACC clone; ATCC clone for [Cys5]-CGRP); conditions: for cAMP (SK-N-MC) Emax (% CGRP) CGRP analogue: radioreceptor assay, approx. 10 min, means ± SEM, n = 3–6
Description: Production of cAMP in SK-N-MC cells for all analogues except [[…]]-hαCGRP was by a radioreceptor assay, as described previously (Poyner et al., [1998]). […] For [[…]]-hαCGRP, a different clone of SK-N-MC cells was used and cAMP production was measured via AlphaScreen (Perkin Elmer, Wellesley, MA, USA), as described previously ([…] et al., [2010]). This assay was also used to investigate the action of all derivatives at the AMY1(a) receptor and other experiments using Cos 7 cells. […] GraphPad Prism 5.00 or 6.00 (GraphPad Software Inc., San Diego, CA, USA) was used for data fitting. Concentration-response curves were fitted to a sigmoidal function with Hill slope constrained to unity to obtain pEC50 and maximum responses (Emax) values. Displacement curves were analysed to obtain pIC50 values. Schild plots were fitted by linear regression to obtain slope and intercepts. pEC50 and pIC50 values were compared with that of human αCGRP using Dunnett's test with either a normal or repeated measures one-way ANOVA, as appropriate.

[3] = target: T3, CGRP receptor (calcitonin receptor-like receptor in complex with receptor activity-modifying protein 1) (human (endogenous in SK-N-MC), UniProt Q16602 23-461; O60894 27-148); experiment: radioligand binding; displacement of ^125I-CGRP from SK-N-MC cell membranes by unlabelled peptides, microcentrifugation-based binding assay; [Cys^5]-CGRP and its control on another batch of SK-N-MC cells; conditions: one partner purified
[4] = target: AMY_(1(a)) receptor (human HA-tagged CT (a) receptor with human myc-tagged RAMP1) (human) (UniProt O60894)
[5] = target: T3, CGRP receptor (calcitonin receptor-like …); experiment: cell-based or functional assay

T1 sequence (Q16602 23-461): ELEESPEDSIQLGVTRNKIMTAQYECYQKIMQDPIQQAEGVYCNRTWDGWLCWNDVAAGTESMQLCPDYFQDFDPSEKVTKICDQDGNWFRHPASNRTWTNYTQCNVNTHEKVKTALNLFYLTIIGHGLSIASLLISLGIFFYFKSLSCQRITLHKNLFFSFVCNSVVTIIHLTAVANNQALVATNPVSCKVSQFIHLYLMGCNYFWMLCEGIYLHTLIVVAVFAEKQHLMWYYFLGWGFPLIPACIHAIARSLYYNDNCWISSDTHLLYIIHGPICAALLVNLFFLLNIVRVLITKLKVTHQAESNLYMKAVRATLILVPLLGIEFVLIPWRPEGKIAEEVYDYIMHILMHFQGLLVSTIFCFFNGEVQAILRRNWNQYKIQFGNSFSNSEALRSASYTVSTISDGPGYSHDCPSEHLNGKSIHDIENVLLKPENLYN
T1 sequence (O60894 27-148): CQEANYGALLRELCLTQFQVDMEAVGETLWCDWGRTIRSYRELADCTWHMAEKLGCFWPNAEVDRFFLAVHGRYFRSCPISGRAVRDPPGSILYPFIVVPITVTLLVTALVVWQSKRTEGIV
T3 sequence (Q16602 23-461, chain 1 of 2): as the sequence (Q16602 23-461) above
T3 sequence (O60894 27-148, chain 2 of 2): as the sequence (O60894 27-148) above
Sequence of AMY_(1(a)) receptor (human HA-tagged CT (a) receptor with human myc-tagged RAMP1) (human) (O60894 whole entry, looked up): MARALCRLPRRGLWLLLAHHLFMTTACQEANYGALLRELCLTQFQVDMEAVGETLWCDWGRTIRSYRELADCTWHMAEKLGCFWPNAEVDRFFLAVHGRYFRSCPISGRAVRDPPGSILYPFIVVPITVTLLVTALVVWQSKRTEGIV
T2 sequence (P30988 25-474): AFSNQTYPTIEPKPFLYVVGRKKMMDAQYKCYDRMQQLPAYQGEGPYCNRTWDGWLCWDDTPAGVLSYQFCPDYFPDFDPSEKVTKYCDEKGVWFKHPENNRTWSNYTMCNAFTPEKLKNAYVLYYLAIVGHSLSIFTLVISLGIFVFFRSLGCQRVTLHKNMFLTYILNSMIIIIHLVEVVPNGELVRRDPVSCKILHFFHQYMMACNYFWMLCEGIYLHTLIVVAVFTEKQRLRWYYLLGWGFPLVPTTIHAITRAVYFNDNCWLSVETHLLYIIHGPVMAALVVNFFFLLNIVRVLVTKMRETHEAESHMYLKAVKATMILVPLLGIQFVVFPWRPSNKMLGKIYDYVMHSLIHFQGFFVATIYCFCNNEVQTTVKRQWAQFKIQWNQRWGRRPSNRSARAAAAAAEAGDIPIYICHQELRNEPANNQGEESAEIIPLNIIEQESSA
T2 sequence (O60894 27-148): as the sequence (O60894 27-148) above

CC(C)C[C@H](NC(=O)CNC(=O)[C@H](C)NC(=O)[C@H](CC(C)C)NC(=O)[C@H](CCCNC(=N)N)NC(=O)[C@H](Cc1c[nH]cn1)NC(=O)[C@@H](NC(=O)[C@@H](NC(=O)[C@@H]1CSSC[C@H](NC(=O)[C@H](C)N)C(=O)N[C@@H](CC(=O)O)C(=O)N[C@@H](C)C(=O)N[C@@H](C)C(=O)N[C@@H]([C@@H](C)O)C(=O)N1)C(C)C)[C@@H](C)O)C(=O)N[C@@H](CC(C)C)C(=O)N[C@@H](CO)C(=O)N[C@@H](CCCNC(=N)N)C(=O)N[C@@H](CO)C(=O)NCC(=O)NCC(=O)N[C@H](C(=O)N[C@H](C(=O)N[C@@H](CCCCN)C(=O)N[C@@H](CC(N)=O)C(=O)N[C@@H](CC(N)=O)C(=O)N[C@@H](Cc1ccccc1)C(=O)N[C@H](C(=O)N1CCC[C@H]1C(=O)N[C@H](C(=O)N[C@@H](CC(N)=O)C(=O)N[C@H](C(=O)NCC(=O)N[C@@H](CO)C(=O)N[C@@H](CCCCN)C(=O)N[C@@H](C)C(=O)N[C@@H](Cc1ccccc1)C(N)=O)C(C)C)[C@@H](C)O)C(C)C)C(C)C)C(C)C [[Ala^4]]
β-Arrestin (CHO-K1) Emax (% CGRP) CGRP analogue (CGRP receptor [1]): 73 ± 3 % CGRP
β-Arrestin (CHO-K1) Emax (% CGRP) CGRP analogue (CGRP receptor [1]; listed as [Ala^6]): 43 ± 2.0 % CGRP
β-Arrestin (CHO-K1) Emax (% CGRP) CGRP analogue (CGRP receptor [1]; listed as [Ala^8]): 81 ± 3 % CGRP
β-Arrestin (CHO-K1) Emax (% CGRP) CGRP analogue (CGRP receptor [1]; listed as [Ala^9]): 64 ± 3 % CGRP
reduction of Emax, β-arrestin 2 translocation (CGRP receptor [1]; listed as [Ala^6]-CGRP): ~60%
reduction of Emax, β-arrestin 2 translocation (CGRP receptor [1]; listed as [Ala^8]-CGRP): 20%
AMY1(a) receptor-stimulated cAMP Emax (% CGRP) CGRP analogue (AMY1(a) receptor; n = 3–6): 161 ± 45 % CGRP
AMY1(a) receptor-stimulated cAMP Emax (% CGRP) CGRP analogue (AMY1(a) receptor; n = 3–6, listed as [Ala^6]): 42 ± 11 % CGRP
AMY1(a) receptor-stimulated cAMP Emax (% CGRP) CGRP analogue (AMY1(a) receptor; n = 3–6, listed as [Ala^8]): 143 ± 11 % CGRP
AMY1(a) receptor-stimulated cAMP Emax (% CGRP) CGRP analogue (AMY1(a) receptor; n = 3–6, listed as [Ala^9]): 89 ± 9 % CGRP
EC50 (CGRP receptor [2]; AlphaScreen, second SK-N-MC clone, n = 3–4, read-out: pEC50, cAMP, control experiments for cross-compatibility of the two SK-N-MC cell clones (converted)): 0.0263 µM and 0.0407 µM
cAMP (SK-N-MC) Emax (% CGRP) CGRP analogue (CGRP receptor [2]): 100 ± 11 % CGRP
cAMP (SK-N-MC) Emax (% CGRP) CGRP analogue (CGRP receptor [2]; listed as [Ala^6]): 72 ± 12 % CGRP
cAMP (SK-N-MC) Emax (% CGRP) CGRP analogue (CGRP receptor [2]; listed as [Ala^8]): 104 ± 8 % CGRP
cAMP (SK-N-MC) Emax (% CGRP) CGRP analogue (CGRP receptor [2]; listed as [Ala^9]): 103 ± 13 % CGRP

B1: [Ala^8]-CGRP (peptide)
chain: ACDTATCATHRLAGLLSRSGGVVKNNFVPTNVGSKAF-NH2
modifications: disulfide 2-7; N-terminus assumed
SMILES: CC(C)C[C@H](NC(=O)CNC(=O)[C@H](C)NC(=O)[C@H](CC(C)C)NC(=O)[C@H](CCCNC(=N)N)NC(=O)[C@H](Cc1c[nH]cn1)NC(=O)[C@@H](NC(=O)[C@H](C)NC(=O)[C@@H]1CSSC[C@H](NC(=O)[C@H](C)N)C(=O)N[C@@H](CC(=O)O)C(=O)N[C@@H]([C@@H](C)O)C(=O)N[C@@H](C)C(=O)N[C@@H]([C@@H](C)O)C(=O)N1)[C@@H](C)O)C(=O)N[C@@H](CC(C)C)C(=O)N[C@@H](CO)C(=O)N[C@@H](CCCNC(=N)N)C(=O)N[C@@H](CO)C(=O)NCC(=O)NCC(=O)N[C@H](C(=O)N[C@H](C(=O)N[C@@H](CCCCN)C(=O)N[C@@H](CC(N)=O)C(=O)N[C@@H](CC(N)=O)C(=O)N[C@@H](Cc1ccccc1)C(=O)N[C@H](C(=O)N1CCC[C@H]1C(=O)N[C@H](C(=O)N[C@@H](CC(N)=O)C(=O)N[C@H](C(=O)NCC(=O)N[C@@H](CO)C(=O)N[C@@H](CCCCN)C(=O)N[C@@H](C)C(=O)N[C@@H](Cc1ccccc1)C(N)=O)C(C)C)[C@@H](C)O)C(C)C)C(C)C)C(C)C
pKi [3]: 9.42
Emax (% CGRP), cAMP production in Cos 7 cells with the AMY (1(a)) receptor [4]: 143 % CGRP
pEC50, cAMP production in Cos 7 cells with the AMY (1(a)) receptor [4]: 8.97

B2: [Ala^9]-CGRP (peptide)
chain: ACDTATCVAHRLAGLLSRSGGVVKNNFVPTNVGSKAF-NH2
modifications: disulfide 2-7; N-terminus assumed
SMILES: CC(C)C[C@H](NC(=O)CNC(=O)[C@H](C)NC(=O)[C@H](CC(C)C)NC(=O)[C@H](CCCNC(=N)N)NC(=O)[C@H](Cc1c[nH]cn1)NC(=O)[C@H](C)NC(=O)[C@@H](NC(=O)[C@@H]1CSSC[C@H](NC(=O)[C@H](C)N)C(=O)N[C@@H](CC(=O)O)C(=O)N[C@@H]([C@@H](C)O)C(=O)N[C@@H](C)C(=O)N[C@@H]([C@@H](C)O)C(=O)N1)C(C)C)C(=O)N[C@@H](CC(C)C)C(=O)N[C@@H](CO)C(=O)N[C@@H](CCCNC(=N)N)C(=O)N[C@@H](CO)C(=O)NCC(=O)NCC(=O)N[C@H](C(=O)N[C@H](C(=O)N[C@@H](CCCCN)C(=O)N[C@@H](CC(N)=O)C(=O)N[C@@H](CC(N)=O)C(=O)N[C@@H](Cc1ccccc1)C(=O)N[C@H](C(=O)N1CCC[C@H]1C(=O)N[C@H](C(=O)N[C@@H](CC(N)=O)C(=O)N[C@H](C(=O)NCC(=O)N[C@@H](CO)C(=O)N[C@@H](CCCCN)C(=O)N[C@@H](C)C(=O)N[C@@H](Cc1ccccc1)C(N)=O)C(C)C)[C@@H](C)O)C(C)C)C(C)C)C(C)C
Emax (% CGRP), cAMP production in Cos 7 cells with the AMY (1(a)) receptor [4]: 89 % CGRP
pEC50, cAMP production in Cos 7 cells with the AMY (1(a)) receptor [4]: 8.21
Emax (% CGRP), cAMP production in SK-N-MC cells [5]: 103 % CGRP
Emax (% CGRP), β-arrestin 2 translocation in CHO-K1 cells expressing the human CGRP receptor [5]: 64 % CGRP
pEC50, cAMP production in SK-N-MC cells [5]: 7.3
pEC50, β-arrestin 2 translocation in CHO-K1 cells expressing the human CGRP receptor [5]: 8.23

ACDTAKCVTHRLAGLLSRSGGVVKNNFVPTNVGSKAF-NH2 (disulfide 2-7) [[Lys^6]-CGRP]
pKi [3]: 7.76

CCDTATCVTHRLAGLLSRSGGVVKNNFVPTNVGSKAF-NH2 (disulfide 2-7; also: Cys1 Acm protected, removal not given here) [[Cys^1]-CGRP]
pKi [3]: 9.55
Emax (% CGRP), cAMP production in SK-N-MC cells [5]: 71 % CGRP
Emax (% CGRP), β-arrestin 2 translocation in CHO-K1 cells expressing the human CGRP receptor [5]: 60 % CGRP
pEC50, cAMP production in SK-N-MC cells [5]: 7.7
pEC50, β-arrestin 2 translocation in CHO-K1 cells expressing the human CGRP receptor [5]: 8.58

ACDTACCVTHRLAGLLSRSGGVVKNNFVPTNVGSKAF-NH2 (disulfide 2-7; also: Cys6 Acm protected, removal not given here) [[Cys^6]-CGRP]
pKi [3]: 9.33

ACDTADCVTHRLAGLLSRSGGVVKNNFVPTNVGSKAF-NH2 (disulfide 2-7) [[Asp^6]-CGRP]
pKi [3]: 7.5
